Results: US12590147 (OBLIQUE THERAPEUTICS, dated 2026)

target: T1, human TRPV1 (transient receptor potential vanilloid type 1) (human, UniProt Q8NER1 1-839); test: FACS on CHO cells with induced hTRPV1 expression
T1 construct: ion channel expressed from a tetracycline regulated system (T-REx) in adherent CHO cells, induced with doxycycline; also called hTRPV1
Procedure: For monoclonal antibody preparations, CHO-TRPV1 cells were incubated with 50 μl antibody preparation (serum, hybridoma supernatant or purified monoclonal antibody) for 30 min at 4° C., followed by 30 min incubation at 4° C. with 50 µl secondary antibody (anti-mouse IgG, conjugated to fluorescent probe). The negative control was secondary antibody only (anti-mouse IgG at […] in the 50 µL sample). Binding was assessed by measurement of fluorescence signal from cells and reported as mean fluorescence intensity (MFI). CHO-TRPV1 cells are adherent Chinese hamster ovary (CHO) cells with a tetracycline regulated expression system (T-REx) of hTRPV1 (human TRPV1) as described elsewhere. Doxycycline was used to induce expression of TRPV1 (denoted +TRPV1). Non-induced cells are denoted –TRPV1.
Three examples of mouse monoclonal antibodies against human TRPV1, OT-Ab1, OT-Ab2 and OT-Ab3, were produced using the hybridoma technology. Specificity of binding to hTRPV1 was determined using FACS, employing a CHO cell line with inducible hTRPV1 expression. OT-Ab1, OT-Ab2 and OT-Ab3 bound to hTRPV1-expressing cells but not to non-hTRPV1-expressing cells indicating strongly specific binding to hTRPV1 (FIG. 5).

T1 sequence (Q8NER1 whole entry): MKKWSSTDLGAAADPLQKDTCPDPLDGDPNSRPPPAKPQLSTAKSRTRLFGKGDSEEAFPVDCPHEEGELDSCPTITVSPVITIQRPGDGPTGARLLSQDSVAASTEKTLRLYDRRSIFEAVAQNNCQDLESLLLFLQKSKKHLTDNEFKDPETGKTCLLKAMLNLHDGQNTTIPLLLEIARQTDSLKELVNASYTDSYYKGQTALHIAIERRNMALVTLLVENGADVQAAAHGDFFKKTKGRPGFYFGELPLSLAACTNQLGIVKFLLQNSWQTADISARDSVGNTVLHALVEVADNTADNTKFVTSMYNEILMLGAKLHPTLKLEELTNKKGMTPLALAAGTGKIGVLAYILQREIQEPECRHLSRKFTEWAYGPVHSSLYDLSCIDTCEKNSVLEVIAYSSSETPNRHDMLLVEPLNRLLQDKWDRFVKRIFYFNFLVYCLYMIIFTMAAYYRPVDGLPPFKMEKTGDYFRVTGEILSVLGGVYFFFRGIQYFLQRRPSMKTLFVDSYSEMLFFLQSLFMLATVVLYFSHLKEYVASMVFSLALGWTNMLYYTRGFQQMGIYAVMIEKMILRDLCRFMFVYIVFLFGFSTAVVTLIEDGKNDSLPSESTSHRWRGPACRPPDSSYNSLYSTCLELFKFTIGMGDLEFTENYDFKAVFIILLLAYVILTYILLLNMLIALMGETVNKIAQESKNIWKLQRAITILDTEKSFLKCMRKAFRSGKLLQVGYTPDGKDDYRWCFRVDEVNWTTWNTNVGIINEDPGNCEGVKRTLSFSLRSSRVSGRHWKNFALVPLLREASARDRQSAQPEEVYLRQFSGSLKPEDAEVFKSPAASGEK

Binder	binding result
OT-Ab2 (antibody, IgG1, V domains shown, mouse monoclonal, IgG1/kappa) VH: EVKLLESGGGLVQPGGSLKLSCAASGFDFRRYWMSWVRQAPGKGLEWIGEINPDSSTINYTPSLKDEFIISRDNAKNTLYLQMSKVRSEDTVLYYCSRGGDYWGQGTSVTVSS VL: not shown	binds
OT-Ab3 (antibody, IgG1, V domains shown, mouse monoclonal, IgG1/kappa) VH: EVNLLESGGGLVQPGGSLKLSCAASGFDFRRYWMSWVRQAPGKGLEWIGEINPDSSTINYTPSLKDEFIISRDNAKNTLYLQMSKVRSEDTVLYYCSRGGDYWGQGTSVTVSS VL: not shown	binds
OT-Ab1 (antibody, IgG2b, V domains shown, mouse monoclonal, IgG2b/kappa) VH: EVQLQQSGAELVKPGASVKLSCTASGFNIKDTYIHWVKQRPEQGLEWIGRIDPANGNTRYDPKFQGKATITADTSSNTAYLQLSSLTSEDTAVYYCAKVSGDRRFYWYFDVWGAGTTVTVSS VL: not shown	binds

target: T1, human TRPV1 (transient receptor …); test: FACS on CHO TRPV1 cells, purified antibody
Procedure: For monoclonal antibody preparations for FACS analysis, CHO TRPV1 cells, HEK 293 cells or CHO S cells were incubated with 50 μl antibody preparation (serum, hybridoma supernatant or purified monoclonal antibody or control) for 40 min at room temperature, followed by 30 min incubation at room temperature with 100 μl secondary antibody (anti-mouse IgG, conjugated to fluorescent probe). Binding was assessed by measurement of fluorescence signal from cells and reported as mean fluorescence intensity (MFI). CHO TRPV1 cells are adherent Chinese hamster ovary (CHO) cells with a tetracycline regulated expression system (T-REx) of hTRPV1 (human TRPV1) as described elsewhere. Doxycycline was used to induce expression of TRPV1. CHO S cells and HEK 293 cells were used as negative control cells. CHO S cells are a high-density suspension-adapted cell type used as a tool for high level expression of recombinant protein, with little or no basal expression of TRPV1. […]
In the study described in the present example, 16 mouse monoclonal antibodies against human TRPV1, 32C8-1, 33C9-1, 34C11-1, 40B10-1, 41B5-1, 43D6-1, 44E8-1, 46B7-1, 46D9-1, 12C9-1, 12G6-1, 15D8-1, 16F1-1, 17E11-1, 17E9-1, 18E10-1, were produced using the hybridoma technology. Specificity of binding to hTRPV1 was determined using FACS, employing a CHO cell line with inducible hTRPV1 expression. […]

Binder	binding result
12C9-1 (antibody, IgG2b, V domains shown, mouse monoclonal, IgG2b/kappa) VH: EVQLQQSGPELVKPGTSVKISCKASGYTFTGYYMNWVKQSHGKSLEWIGDINPNNGGTDYNRKFKGKATLTVDKSSSTAYMEVRSLTSEDSAVYYCAKDFAVWGTGTTVTVSS VL: not shown	binds
12G6-1 (antibody, IgG1, V domains shown, mouse monoclonal, IgG1/kappa) VH: EVQLVESGGDLVNPGGSLKLSCAASGFTISNYGMSWVRQTPDKRLEWVAIIIRDGGYTYYPDSVKGRFTISRDSAKNTLYLQMSSLKSEDTAMYYCARHEYYFDFWGQGTTLTVSS VL: DVLMTQTPLSLPVSLGDQASISCRSSQTILHSDGNTYLEWYLQKPGQSPKLLIYKVSNRFSGVPDRFSGSGSGTDFTLKISRVEAEDLGVYYCSQGSHFPPTFGGGTKVEIK	binds

target: T1, human TRPV1 (transient receptor …); test: cell-based or functional assay

Binder	IC50 of inhibition of TRPV1-mediated capsaicin-induced Ca2+ uptake (FLIPR)
15D8-1 (antibody, V domains shown) VH: DVQLVESGGGLVQPGGSRKLSCAASGFTFSSFGMHWVRQAPEKGLEWVAYISSGSSTIYYADTVKGRFTISRDNPKNTLFLQMTSLRSEDTAMYYCARRGNAMDYWGQGTSVTVSS VL: NIMMTQSPSSLAVSAGEKVTMSCKSSQSVLYSSNQKNYLAWYQQKPGQSPKLLIYWASTRESGVPDRFTGSGSGTDFTLTISSVQAEDLAVYYCHQYFSSWTFGGGTKLEIK	~70 nM
41B5-1 (antibody, V domains shown) VH: DVQLQESGPGLVKPSQSLSLTCTVTDYSLTSDYAWNWIRQFPGNKLEWMGYITYSGYTNFNPSLRSRISITRDTSKTQFFLQLNSVTAEDTATYYCVRSTTYFDYWGQGTTLTVSS VL: DVLMTQTPLSLPVSLGDQASISCRSSQSIVHSDGNTYLEWYLQKPGQSPKLLIYKVSNRFSGVPDRFSGSGSGTDFTLKINRVEAEDLGIYYCFQGSHVPPTFGGGTKLEIK	~170 nM
46B7-1 (antibody, V domains shown) VH: DVQLQESGPGLVKPSQSLSLTCTVTDYSLTSDYAWNWIRQFPGNKLEWMGYITYSGYTNYNPSLKSRVSITRDTSKTQFFLQLNSVTTEDTATYYCARSTAYFDYWGQGTTLTVSS VL: DVLMTQTPLSLPVSLGDQASISCRSSQSVIHSDGNTYLEWYLQKPGQSPKLLIYKVSNRFSGVPDRFSGSGSGTDFTLKISRVEAEDLGVYYCFQGSHVPPTFGGGTKLEIK	~200 nM
17E11-1 (antibody, IgG1, V domains shown) VH: EVQLLQSVAELVRPGASVKLSCTASGFNIKNTFIHWLKQRPEQGLEWIGKIDPANGNIRCAPKFQGKATITADTSSNTAYLQLSSLTSGDTAIYYCGRGTMLVGHFYWYFDVWGTGTTVTVSS VL: DIVMSQSPSSLAVSVGEKITMSCKSSQSLLYSSNQKNYLAWYQQKPGQSPKLLIYWASTRESGVPDRFSGSGSGTDFTLTISSVKTEDLAIFYCQQYYYYPPTFGAGTKLELR	~230 nM
17E9-1 (antibody, IgG2b, V domains shown) VH: EVQLLQSVAELVRPGASVKLSCTASGFNIKNTFIHWLKQRPEQGLEWIGKIDPANGNIRCAPKFQGKATITADTSSNTAYLQLSSLTSGDTAIYYCGRGTMLVGHFYWYFDVWGTGTTVTVSS VL: DIVMSQSPSSLAVSVGEKITMSCKSSQSLLYSSNQKNYLAWYQQKPGQSPKLLIYWASTRESGVPDRFSGSGSGTDFTLTISSVKTEDLAIFYCQQYYYYPPTFGAGTKLELR	~400 nM
16F1-1 (antibody, IgG2a, V domains shown) VH: EVQLVESGGGLVQPKGSLKLSCAASGFTFNTYAMHWVRQAPGKGLEWVARIRSKSSNYATYYADSVKDRFTISRDDSQSMVYLQMNNLKTEDTAMYYCVRKGDGYDGWFAYWGQGTLVTVSA VL: DIQMTQSPASLSASVGETVTITCRPSGNIHNYLVWYQQKQGKSPQVLVYNSKTLADGVPSRFSGSGSGTQYSLKINSLQPEDFGTYYCQHFWSTPLTFGAGTKLELK	~215 nM
